Test results taken from paper PMC12109740, “Modulation of Kv Channel Gating by Light-Controlled Membrane Thickness” (Biomolecules, 2025).

Target: the molecule itself
Experiment: SEC; Superdex 200 Increase 10/300 GL, 100 mM KCl, 25 mM Tris pH 8.0, in detergent (DM by the methods, DDM by the results); peak at 11 mL

B1: KvAP wild type (voltage-gated potassium channel from Aeropyrum pernix) (natural protein)
chain: GGRVRNIGDVMEHPLVELGVSYAALLSVIVVVVEYTMQLSGEYLVRLYLVDLILVIILWADYAYRAYKSGDPAGYVKKTLYEIPALVPAGLLALIEGHLAGLGLFRLVRLLRFLRILLIISRGSKFLSAIADAADKIRFYHLFGAVMLTVLYGAFAIYIVEYPDPNSSIKSVFDALWWAVVTATTVGYGDVVPATPIGKVIGIAVMLTGISALTLLIGTVSNMFQKILVGEPEPSCSPAKLAEMVSSMSEEEFEEFVRTLKNLRRLENSMK
notes: KvAP, voltage-gated potassium channel of Aeropyrum pernix, wild type; also called Kv channel from Aeropyrum pernix; source: E. coli C43 (DE3), pET21a-derived vector, solubilised in detergent, purified (Ni-NTA, SEC on Superdex 200 Increase)
- stoichiometry N: 4
